From PMC11980842, “MprF from Pseudomonas aeruginosa is a promiscuous lipid scramblase with broad substrate specificity” (Science Advances, 2025) come the findings set out here.

In assay [1] the target is T1, Truncated PaMprF construct of residues 1 to 545 (TM region) (Pseudomonas aeruginosa PAO1).
T1 construct: MprF of Pseudomonas aeruginosa (PAO1), residues 1 to 545, representing the transmembrane region; also called truncated form of PaMprF representing the TM region
T1 chain: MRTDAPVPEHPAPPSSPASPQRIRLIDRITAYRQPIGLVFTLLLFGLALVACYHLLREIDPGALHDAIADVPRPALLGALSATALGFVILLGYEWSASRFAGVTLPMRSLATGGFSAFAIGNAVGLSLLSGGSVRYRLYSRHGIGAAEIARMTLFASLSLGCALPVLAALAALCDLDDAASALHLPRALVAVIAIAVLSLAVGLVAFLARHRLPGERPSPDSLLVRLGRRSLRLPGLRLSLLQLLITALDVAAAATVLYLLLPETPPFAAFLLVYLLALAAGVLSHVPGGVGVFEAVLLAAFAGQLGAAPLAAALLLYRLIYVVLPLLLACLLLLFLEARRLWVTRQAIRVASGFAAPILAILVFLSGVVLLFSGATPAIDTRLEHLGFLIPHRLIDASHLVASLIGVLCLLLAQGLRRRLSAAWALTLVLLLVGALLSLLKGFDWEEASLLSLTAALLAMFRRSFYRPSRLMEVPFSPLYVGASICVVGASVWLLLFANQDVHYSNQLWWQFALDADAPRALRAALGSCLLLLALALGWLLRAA
Briefly: pull-down; truncated PaMprF construct of residues 1 to 545 with sybodies; who was held is not told.

The target in assay [2] is T2, Multiple peptide resistance factor (MprF) from Pseudomonas aeruginosa, full length (Pseudomonas aeruginosa PAO1).
T2 construct: MprF of Pseudomonas aeruginosa, gene cloned from PAO1 genomic DNA into p7XC3H; full length, monomer of 96 kDa; The monomeric SEC fraction was pooled for downstream experiments; also called PaMprF; WT PaMprF; source: E. coli C41, purified (Ni Sepharose, SEC); reconstituted into SaposinA-lipid nanoparticles for cryo-EM
T2 chain: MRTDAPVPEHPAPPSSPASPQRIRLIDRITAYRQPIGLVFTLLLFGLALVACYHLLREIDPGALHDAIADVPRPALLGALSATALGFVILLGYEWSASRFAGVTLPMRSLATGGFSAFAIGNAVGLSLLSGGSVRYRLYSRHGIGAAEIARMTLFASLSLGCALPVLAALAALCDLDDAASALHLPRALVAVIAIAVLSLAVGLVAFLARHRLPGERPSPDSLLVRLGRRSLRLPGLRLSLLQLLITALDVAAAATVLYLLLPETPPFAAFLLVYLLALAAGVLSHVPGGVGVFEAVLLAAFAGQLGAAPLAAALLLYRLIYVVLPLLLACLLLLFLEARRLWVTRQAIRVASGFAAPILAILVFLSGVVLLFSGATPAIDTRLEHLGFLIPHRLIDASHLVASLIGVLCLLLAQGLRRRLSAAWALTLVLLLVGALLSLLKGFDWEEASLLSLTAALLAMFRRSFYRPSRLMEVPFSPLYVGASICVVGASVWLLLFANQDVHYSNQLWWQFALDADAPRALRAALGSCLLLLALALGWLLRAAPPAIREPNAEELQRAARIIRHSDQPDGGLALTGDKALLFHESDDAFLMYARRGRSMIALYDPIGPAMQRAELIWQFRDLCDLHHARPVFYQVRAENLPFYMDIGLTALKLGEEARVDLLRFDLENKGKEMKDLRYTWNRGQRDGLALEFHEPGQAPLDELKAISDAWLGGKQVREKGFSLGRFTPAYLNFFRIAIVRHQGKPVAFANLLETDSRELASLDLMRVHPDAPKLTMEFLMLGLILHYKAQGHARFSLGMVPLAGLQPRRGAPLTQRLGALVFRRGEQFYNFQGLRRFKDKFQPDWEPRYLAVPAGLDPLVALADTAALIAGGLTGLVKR
Briefly: cryo-EM structure; PaMprF in SaposinA-lipid nanoparticles (POPC:POPG 7:3 mol/mol), separated by SEC, mixed with a 1.2x molar excess of Sb29. To be noted: both partners purified.

B1: Sybody 29 (synthetic nanobody against PaMprF) (VHH)
VHH: GVQLVESGGGLVQAGGSLRLSCAASGFPVSSAWMAWYRQAPGKEREWVAAIFSAGQKTRYADSVKGRFTISRDNAKNTVYLQMNSLKPEDTAVYYCNVKDTGHWWDIYDYWGQGTQVTVSA
notes: synthetic nanobody from the loop sybody sublibrary; the structure of its complex with PaMprF was deposited as PDB 9GOE; Selected by one round of ribosome display and two rounds of phage display against biotinylated full-length PaMprF; also called Sb29
For B1, the binding result in assay [1] and in assay [2] was “binds” each time.
